Test results from patent publication US9920105B2, “Human ferritin-derived fusion polypeptide” (Kyungpook National University Industry-Academic Cooperation …, priority 2013, dated 2018).

Tests used:
Type in all cases: in vivo
C57BL/6J mice [1] = test: Lung microstructure observation (PAS-stained lung slides) in APO-induced asthma model
Procedure: (§1) Wild-type C57BL/6J mice were purchased from Jackson Laboratory (Bar Harbor, Me., USA), and bred in a pathogen-free animal facility. All animals were fed with a normal diet (PMI Lab Diet) with free access to water. 6-8-week-old female mice were used for this study. Animal care and experimental procedures were performed with the approval of the Animal Care Committee of KAIST.
(§2) Briefly, Aspergillus oryzae protease (1 mg/mL in PBS, Sigma-Aldrich) and chicken egg ovalbumin (OVA, 0.5 mg/mL in PBS, Sigma-Aldrich) allergen (APO) were mixed 1:9 (v/v) immediately before administration. Mice received four intraperitoneal sensitizations and the intranasal challenge every 4 days (0, 4, 8, 12, 16) with 50 uL of allergen. For intranasal challenge, mice were lightly anesthetized with isoflurane inhalation (Abbott Laboratory, Abbott Park, Ill., USA). A 50 uL of AP1-retaining ferritin cage (GG-AP1L, 157cysAP1-PBNC) or AP1-not-inserted ferritin cage (wt FTL), which was diluted to 1 mg/ml in PBS, was administered 1 h before allergen challenge.
Finally, the experimental mice were sacrificed, and lung slide specimens stained with periodic acid Schiff (PAS) were prepared. Then, changes of inflammatory cells and goblet cells were observed (arrowhead: mucin-positive goblet cell, arrow: inflammatory cell).

C57BL/6J mice [2] = test: Secreted glycoprotein in BAL fluid (modified ELISA) in APO-induced asthma model; settings: 50 uL of 1 mg/ml, 1 h before allergen challenge; FIG. 17d
Procedure: as §1
Briefly, Aspergillus oryzae protease (1 mg/mL in PBS, Sigma-Aldrich) and chicken egg ovalbumin (OVA, 0.5 mg/mL in PBS, Sigma-Aldrich) allergen (APO) were mixed 1:9 (v/v) immediately before administration. Mice received four intraperitoneal sensitizations and the intranasal challenge every 4 days (0, 4, 8, 12, 16) with 50 uL of allergen. […]
Levels of secreted glycoprotein were measured with modified ELISA by the existing method (Lee, S. H. et al., (2004) J. Allergy Clin. Immunol. 113, 72778.). […]
40 ul of each sample was transferred to an ELSA plate Greiner, Kremsmunster, Austria), and incubated at 37° C. for 2 h. […] After final washing upon the completion of the reaction, 70 ul of alkaline phosphatase substrate (5 mmol in 0.1 mol/L alkaline buffer, Sigma-Aldrich) was added, and developed until a mucin standard curve was readily apparent. After termination of the reaction with addition of 40 ul of 0.5 N sodium hydroxide, optical density was measured at 405 nm by an ELISA reader (BioRad, Hercules, Calif., USA).

C57BL/6J mice [3] = test: BAL cytology in APO-induced asthma model; settings: 50 uL of 1 mg/ml, 1 h before allergen challenge; in comparison with control ferritin
Procedure: as §1
(§3) Asthma induction was performed by the existing method (Corry D B, Folkesson H G, Warnock M L, Erle D J, Matthay M A, et al. (1996) J Exp Med 183: 109117).
as §2
For phenotypes of allergic asthma, AHR, BAL cytology, BAL glycoprotein assay, and lung histopathology were performed by the existing method (Lee, S. H., et al. (2003) Nat. Med. 9, 128111286). […]

C57BL/6J mice [4] = test: Airway hyper-responsiveness (AHR) with FlexiVent system in APO-induced asthma model; settings: 50 uL of 1 mg/ml, 1 h before allergen challenge; in comparison with control ferritin; FIG. 17a
Procedure: as §1, §3
as §2, with “challenge. […]” for “challenge.”
Briefly, 16 h after final intranasal challenge, AHR was measured with a FlexiVent system (SCIREQ Inc., Montreal, Canada). […]

B1: GG-AP1L: human ferritin light chain having AP1L (CRKRLDRNC) inserted in GG cassette; AP1-retaining ferritin cage used in asthma model (protein)
chain: MSSQIRQNYSTDVEAAVNSLVNLYLQASYTYLSLGFYFDRDDVALEGVSHFFRELAEEKREGYERLLKMQNQRGGRALFQDIKKPAEDEWGKTPDAMKAAMALEKKLNQALLDLHALGSARTDPHLCDFLETHFLDEEVKLIKKMGDHLTNLHRGSCRKRLDRNCGGPEAGLGEYLFERLTLKHD
modifications: left off: small tags and cut ends
notes: AP1-retaining ferritin cage used in asthma model
Which “counts of mucus-producing goblet cells” value (C57BL/6J mice [1]) does the source give for B1 here?
The value was “significantly reduced”.

What about the “counts of peribronchial inflammatory cells” value (C57BL/6J mice [1]) of the same molecule?
The value was “significantly reduced”.

What about the “amount of secreted glycoprotein in BAL fluid” value (C57BL/6J mice [2]) of the same molecule?
Its value is “significantly reduced”.

What about the “count of eosinophils in BAL fluid” value (C57BL/6J mice [3]) of the same molecule?
The value was “significantly decreased”.

And the “count of inflammation cells in bronchoalveolar lavage (BAL) fluid” value (C57BL/6J mice [3])?
Its value is “significantly decreased”.

And the “airway hyper-responsiveness (AHR)” value (C57BL/6J mice [4])?
The value was “significantly suppressed”.
